{"source": "paper PMC10304963", "origin": "cited, not measured here", "key": {"[1]": {"target": "SIRPα variant 1 (Homo sapiens) (UniProt P78324)"}, "[2]": {"target": "SIRPα variant 2 (Homo sapiens) (UniProt P78324)"}}, "data": [{"substance": "CD47 (from UniProt Q08722)", "values": [{"measurement": "Kd", "setting": "[1]", "value": 740, "unit": "nM"}, {"measurement": "Kd", "setting": "[2]", "value": 640, "unit": "nM"}]}]}
